The record followed here is paper PMC4245977 (Biochemistry, 2014).

This series concerns the molecule itself. Put plainly: crystal structure.

B1: AACC (C136A/C141A) double mutant of the Tn501 MerA (mercuric reductase) catalytic core (domain or fragment, Pseudomonas aeruginosa (Tn501))
chain: EPPVQVAVIGSGGAAMAAALKAVEQGAQVTLIERGTIGGTAVNVGAVPSKIMIRAAHIAHLRRESPFDGGIAATVPTIDRSKLLAQQQARVDELRHAKYEGILGGNPAITVVHGEARFKDDQSLTVRLNEGGERVVMFDRCLVATGASPAVPPIPGLKESPYWTSTEALASDTIPERLAVIGSSVVALELAQAFARLGSKVTVLARNTLFFREDPAIGEAVTAAFRAEGIEVLEHTQASQVAHMDGEFVLTTTHGELRADKLLVATGRTPNTRSLALDAAGVTVNAQGAIVIDQGMRTSNPNIYAAGDCTDQPQFVYVAAAAGTRAAINMTGGDAALDLTAMPAVVFTDPQVATVGYSEAEAHHDGIETDSRTLTLDNVPRALANFDTRGFIKLVIEEGSHRLIGVQAVAPEAGELIQTAALAIRNRMTVQELADQLFPYLTMVEGLKLAAQTFNKDVKQLSCCAG
In the case of B1, the binding result is “binds”.
